{"source": "the Human Domainome abundance scans (Beltran et al. 2025)", "parents": {"B1": {"name": "Tripartite motif-containing protein 6, residues 93 to 134; numbered along this chain, Q9C030 (parent)", "chain": "KAVLCADHGEKLQLFCQEDGKVICWLCERSQEHRGHHTFLVE"}}, "note": "± gives the uncertainty stated by the source."}
{"variants_of": "B1", "assay": "abundance fitness (aPCA) (normalised: wild type 0, dead -1); higher = more abundant; growth selection in yeast, the domain comes from the species named", "conditions": "Homo sapiens"}
{"variant": "KAVLCADHGEKLQLFCQEDGKVICWLCERSQEHRGHHTFPVE", "abundance fitness": "0.11 ± 0.077"}
{"variant": "KAVLCADHGEKLQLFCQEDGKVICWLCERSQEHRGHHTFLVA", "abundance fitness": "-0.852 ± 0.45"}
{"variant": "KAVLCADHGEKLQLFCQEDGKVICWLCERSQEHRGHHTFLVC", "abundance fitness": "-0.426 ± 0.22"}
{"variant": "KAVLCADHGEKLQLFCQEDGKVICWLCERSQEHRGHHTFLVD", "abundance fitness": "0.094 ± 0.16"}
{"variant": "KAVLCADHGEKLQLFCQEDGKVICWLCERSGEHRGHHTFLVE", "abundance fitness": "-0.083 ± 0.055"}
{"variant": "KAVLCADHGEKLQLFCQEDGKVICWLCERSAEHRGHHTFLVE", "abundance fitness": "-0.121 ± 0.049"}
{"variant": "KAVLCADHGEKLQLFCQEDGKVICWLCERSTEHRGHHTFLVE", "abundance fitness": "-0.045 ± 0.073"}
{"variant": "KAVLCADHGEKLQLFCQEDGKVICWLCERSWEHRGHHTFLVE", "abundance fitness": "-0.593 ± 0.09"}
{"variant": "KAVLCADHGEKLQLFCQEDGKVICWLCERSLEHRGHHTFLVE", "abundance fitness": "-0.343 ± 0.088"}
{"variant": "KAVLCADHGEKLQLFCQEDGKVICWLCERSVEHRGHHTFLVE", "abundance fitness": "0.004 ± 0.074"}
{"variant": "KAVLCADHGEKLQLFCQEDGKVICWLCERSMEHRGHHTFLVE", "abundance fitness": "-0.057 ± 0.07"}
{"variant": "KAVLCADHGEKLQLFCQEDGKVICWLCERSSEHRGHHTFLVE", "abundance fitness": "-0.031 ± 0.084"}
{"variant": "KAVLCADHGEKLQLFCQEDGKVICWLCERSDEHRGHHTFLVE", "abundance fitness": "-0.228 ± 0.14"}
{"variant": "KAVLCADHGEKLQLFCQEDGKVICWLCERSYEHRGHHTFLVE", "abundance fitness": "-0.371 ± 0.27"}
{"variant": "KAVLCADHGEKLQLFCQEDGKVICWLCERSCEHRGHHTFLVE", "abundance fitness": "-0.095 ± 0.12"}
{"variant": "KAVLCADHGEKLQLFCQEDGKVICWLCERSHEHRGHHTFLVE", "abundance fitness": "-0.125 ± 0.083"}
{"variant": "KAVLCADHGEKLQLFCQEDGKVICWLCERSKEHRGHHTFLVE", "abundance fitness": "-0.103 ± 0.11"}
{"variant": "KAVLCADHGEKLQLFCQEDGKVICWLCERSPEHRGHHTFLVE", "abundance fitness": "-0.167 ± 0.13"}
{"variant": "KAVLCADHGEKLQLFCQEDGKVICWLCERSEEHRGHHTFLVE", "abundance fitness": "-0.159 ± 0.08"}
{"variant": "KAVLCADHGEKLQLFCQEDGKVICWLCERSQEHRGHHTVLVE", "abundance fitness": "0.117 ± 0.061"}
{"variant": "KAVLCADHGEKLQLFCQEDGKVICWLCERSQEHRGHHTRLVE", "abundance fitness": "0.19 ± 0.061"}
{"variant": "KAVLCADHGEKLQLFCQEDGKVICWLCERSQEHRGHHTQLVE", "abundance fitness": "0.139 ± 0.078"}
{"variant": "KAVLCADHGEKLQLFCQEDGKVICWLCERSQEHRGHHTMLVE", "abundance fitness": "0.01 ± 0.15"}
{"variant": "KAVLCADHGEKLQLFCQEDGKVICWLCERSQEHRGHHTALVE", "abundance fitness": "0.165 ± 0.058"}
{"variant": "KAVLCADHGEKLQLFCQEDGKVICWLCERSQEHRGHHTKLVE", "abundance fitness": "0.435 ± 0.26"}
{"variant": "KAVLCADHGEKLQLFCQEDGKVICWLCERSQEHRGHHTYLVE", "abundance fitness": "0.161 ± 0.19"}
{"variant": "KAVLCADHGEKLQLFCQEDGKVICWLCERSQEHRGHHTNLVE", "abundance fitness": "0.041 ± 0.11"}
{"variant": "KAVLCADHGEKLQLFCQEDGKVICWLCERSQEHRGHHTPLVE", "abundance fitness": "-0.487 ± 0.36"}
{"variant": "KAVLCADHGEKLQLFCQEDGKVICWLCERSQEHRGHHTGLVE", "abundance fitness": "0.093 ± 0.053"}
{"variant": "KAVLCADHGEKLQLFCQEDGKVICWLCERSQEHRGHHTWLVE", "abundance fitness": "-0.149 ± 0.13"}
{"variant": "KAVLCADHGEKLQLFCQEDGKVICWLCERSQEHRGHHTTLVE", "abundance fitness": "0.111 ± 0.095"}
{"variant": "KAVLCADHGEKLQLFCQEDGKVICWLCERSQEHRGHHEFLVE", "abundance fitness": "-0.265 ± 0.43"}
{"variant": "KAVLCADHGEKLQLFCQEDGKVICWLCERSQEHRGHHGFLVE", "abundance fitness": "-0.177 ± 0.12"}
{"variant": "KAVLCADHGEKLQLFCQEDGKVICWLCERYQEHRGHHTFLVE", "abundance fitness": "-0.313 ± 0.13"}
{"variant": "KAVLCADHGEKLQLFCQEDGKVICWLCERWQEHRGHHTFLVE", "abundance fitness": "-0.686 ± 0.11"}
{"variant": "KAVLCADHGEKLQLFCQEDGKVICWLCERSQEARGHHTFLVE", "abundance fitness": "-0.392 ± 0.1"}
{"variant": "KAVLCADHGEKLQLFCQEDGKVICWLCERSQERRGHHTFLVE", "abundance fitness": "-0.364 ± 0.087"}
{"variant": "KAVLCADHGEKLQLFCQEDGKVICWLCERSQEGRGHHTFLVE", "abundance fitness": "-0.643 ± 0.1"}
{"variant": "KAVLCADHGEKLQLFCQEDGKVICWLCERSQEWRGHHTFLVE", "abundance fitness": "-0.804 ± 0.15"}
{"variant": "KAVLCADHGEKLQLFCQEDGKVICWLCERSQESRGHHTFLVE", "abundance fitness": "-0.28 ± 0.15"}
{"variant": "KAVLCADHGEKLQLFCQEDGKVICWLCERSQEMRGHHTFLVE", "abundance fitness": "-0.549 ± 0.11"}
{"variant": "KAVLCADHGEKLQLFCQEDGKVICWLCERSQECRGHHTFLVE", "abundance fitness": "-0.246 ± 0.36"}
{"variant": "KAVLCADHGEKLQLFCQEDGKVICWLCERSQETRGHHTFLVE", "abundance fitness": "-0.685 ± 0.26"}
{"variant": "KAVLCADHGEKLQLFCQEDGKVICWLCERSQEPRGHHTFLVE", "abundance fitness": "-0.771 ± 0.43"}
{"variant": "KAVLCADHGEKLQLFCQEDGKVICWLCERSQEHVGHHTFLVE", "abundance fitness": "0.035 ± 0.053"}
{"variant": "KAVLCADHGEKLQLFCQEDGKVICWLCERSQEHSGHHTFLVE", "abundance fitness": "-0.035 ± 0.068"}
{"variant": "KAVLCADHGEKLQLFCQEDGKVICWLCERSQEHKGHHTFLVE", "abundance fitness": "-0.111 ± 0.084"}
{"variant": "KAVLCADHGEKLQLFCQEDGKVICWLCERSQEHYGHHTFLVE", "abundance fitness": "0.155 ± 0.1"}
{"variant": "KAVLCADHGEKLQLFCQEDGKVICWLCERSQEHFGHHTFLVE", "abundance fitness": "0.058 ± 0.23"}
{"variant": "KAVLCADHGEKLQLFCQEDGKVICWLCERSQEHTGHHTFLVE", "abundance fitness": "0.071 ± 0.072"}
{"variant": "KAVLCADHGEKLQLFCQEDGKVICWLCERSQEHNGHHTFLVE", "abundance fitness": "-0.058 ± 0.12"}
{"variant": "KAVLCADHGEKLQLFCQEDGKVICWLCERSQEHGGHHTFLVE", "abundance fitness": "-0.161 ± 0.055"}
{"variant": "KAVLCADHGEKLQLFCQEDGKVICWLCERSQEHMGHHTFLVE", "abundance fitness": "-0.052 ± 0.17"}
{"variant": "KAVLCADHGEKLQLFCQEDGKVICWLCERSQEHPGHHTFLVE", "abundance fitness": "-0.386 ± 0.14"}
{"variant": "KAVLCADHGEKLQLFCQEDGKVICWLCERSQEHAGHHTFLVE", "abundance fitness": "-0.007 ± 0.062"}
{"variant": "KAVLCADHGEKLQLFCQEDGKVICWLCERSQEHCGHHTFLVE", "abundance fitness": "-0.14 ± 0.07"}
{"variant": "KAVLCADHGEKLQLFCQEDGKVICWLCERSQEHHGHHTFLVE", "abundance fitness": "0.102 ± 0.062"}
{"variant": "KAVLCADHGEKLQLFCQEDGKVICWLCERSQEHLGHHTFLVE", "abundance fitness": "0.092 ± 0.083"}
{"variant": "KAVLCADHGEKLQLFCQEDGKVICWLCERSQEHQGHHTFLVE", "abundance fitness": "-0.041 ± 0.074"}
{"variant": "KAVLCADHGEKLQLFCQEDGKVICWLCERSQEHEGHHTFLVE", "abundance fitness": "-0.05 ± 0.076"}
